Test results as given in patent CN117866092A (BEIJING KENUO XINCHENG TECH CO LTD, dated 2024).

Columns and labels:
[1] = target: T1, 细胞表面人CD73蛋白 (human CD73 on the cell surface) (human, UniProt P21589 27-549); assay: flow cytometry on BXPC-3 cells, FITC anti-human IgG
T1 construct: whole, on cells; Endogenous CD73 on human tumour cell lines; also called 细胞表面CD73; CD73 on BXPC-3, SKOV-3, A375, MDA-MB-231 and A431 cells
T1 sequence (looked up): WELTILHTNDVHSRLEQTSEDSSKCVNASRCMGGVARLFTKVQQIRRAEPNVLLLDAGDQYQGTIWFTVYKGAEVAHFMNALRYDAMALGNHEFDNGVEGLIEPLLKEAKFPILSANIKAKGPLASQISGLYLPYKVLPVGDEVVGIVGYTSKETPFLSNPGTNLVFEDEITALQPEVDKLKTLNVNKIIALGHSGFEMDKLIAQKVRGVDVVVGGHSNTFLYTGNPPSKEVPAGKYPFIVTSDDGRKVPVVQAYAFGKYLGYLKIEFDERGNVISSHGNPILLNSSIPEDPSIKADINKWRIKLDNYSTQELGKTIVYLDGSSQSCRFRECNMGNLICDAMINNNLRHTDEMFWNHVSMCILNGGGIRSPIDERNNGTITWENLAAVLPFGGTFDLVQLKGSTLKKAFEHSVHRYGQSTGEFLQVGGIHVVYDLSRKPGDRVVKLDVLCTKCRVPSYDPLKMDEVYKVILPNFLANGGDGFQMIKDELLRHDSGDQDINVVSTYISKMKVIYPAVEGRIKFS

[2] = target: T2, 人CD73-his重组蛋白(序列号:NM_002526.3，27-547aa) (human, UniProt P21589 27-547); assay: BLI (Octet QKe), antibody captured on AHC sensor, 60 nM CD73-his as analyte, 1:1 fit
T2 construct: range 27-547; Transiently expressed in eukaryotic cells; also called rhCD73-his; 重组人CD73-his; not shown: his tag
T2 sequence (looked up): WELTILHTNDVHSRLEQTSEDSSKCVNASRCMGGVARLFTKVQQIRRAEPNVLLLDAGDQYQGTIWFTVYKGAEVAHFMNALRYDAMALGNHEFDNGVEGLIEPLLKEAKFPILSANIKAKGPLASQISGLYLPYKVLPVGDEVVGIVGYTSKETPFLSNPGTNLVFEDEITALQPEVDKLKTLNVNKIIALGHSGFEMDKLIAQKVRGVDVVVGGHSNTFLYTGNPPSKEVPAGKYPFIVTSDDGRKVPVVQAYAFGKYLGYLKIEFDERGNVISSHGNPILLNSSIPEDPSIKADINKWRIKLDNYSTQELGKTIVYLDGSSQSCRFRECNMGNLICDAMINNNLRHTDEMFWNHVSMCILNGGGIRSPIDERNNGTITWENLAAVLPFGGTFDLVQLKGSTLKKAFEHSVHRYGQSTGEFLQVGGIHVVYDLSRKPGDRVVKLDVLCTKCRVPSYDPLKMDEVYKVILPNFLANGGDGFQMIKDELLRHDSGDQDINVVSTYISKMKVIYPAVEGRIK

B1: MEDI9447 (antibody, V domains shown)
VH: EVQLLESGGGLVQPGGSLRLSCAASGFTFSSYAYSWVRQAPGKGLEWVSAISGSGGRTYYADSVKGRFTISRDNSKNTLYLQMNSLRAEDTAVYYCARLGYGRVDEWGRGTLVTVSS
VL: QSVLTQPPSASGTPGQRVTISCSGSLSNIGRNPVNWYQQLPGTAPKLLIYLDNLRLSGVPDRFSGSKSGTSASLAISGLQSEDEADYYCATWDDSHPGWTFGGGTKLTVLG
Question: With B1 as the binder, how does the EC50 [1] read?
Answer: 242 pM

Question: What about the Kd [2] of the same binder?
Answer: 635 pM

Question: What about the koff [2] of the same binder?
Answer: 0.000105 s⁻¹

Question: And the kon [2]?
Answer: 165000 M⁻¹ s⁻¹
